Source: article PMC11316058

Biological target: Hsp90α (N-terminally His-tagged, human) (human) (UniProt P07900)
Experiment: ITC; Ahsa1 or Ahsa1^Δ20 (200-300 µM) in the syringe injected into Hsp90-α (30 µM) in the cell; 25 °C; 30 mM Tris pH 7.5, 20 mM KCl, 10% glycerol, 1 mM TCEP; two-site-binding model; three independent experiments

## Ahsa1^Δ20 (C-terminal 6xHis) (from UniProt O95433 21-338) (domain or fragment)
  Kd: 3.2 µM

## full-length Ahsa1 (C-terminal 6xHis) (from UniProt O95433 1-338) (natural protein)
  Kd: 1.73 µM
